Assay results reported in the Human Domainome abundance scans (Beltran et al. 2025).
± gives the uncertainty stated by the source.

B1: Double-stranded RNA-binding protein Staufen homolog 1, residues 183 to 249; numbered along this chain, O95793 (parent)
chain: KSEISQVFEIALKRNLPVNFEVARESGPPHMKNFVTKVSVGEFVGEGEGKSKKISKKNAAIAVLEEL

Variants of: B1
Test: abundance fitness (aPCA) (normalised: wild type 0, dead -1); higher = more abundant; growth selection in yeast, the domain comes from the species named
Conditions: Homo sapiens

Row | Variant | abundance fitness
1 | K57T | 0.17 ± 0.28
2 | K57S | -0.43 ± 0.32
3 | K57F | -0.837 ± 0.42
4 | K57V | -0.218 ± 0.24
5 | K57L | -0.163 ± 0.19
6 | A62T | -0.381 ± 0.059
7 | A62F | -0.787 ± 0.23
8 | A62C | -0.223 ± 0.099
9 | A62P | -0.56 ± 0.075
10 | A62L | -0.68 ± 0.055
11 | A62V | -0.403 ± 0.043
12 | A62K | 0.023 ± 0.068
13 | A62G | -0.302 ± 0.05
14 | A62D | -0.185 ± 0.072
15 | A62E | -0.353 ± 0.058
16 | A62I | -0.384 ± 0.1
17 | A62R | -0.121 ± 0.047
18 | A62S | -0.112 ± 0.05
19 | A62Q | -0.086 ± 0.055
20 | A62H | -0.242 ± 0.098
21 | A62M | -0.226 ± 0.065
22 | A62Y | -0.788 ± 0.14
23 | A62N | 0.035 ± 0.097
24 | I61V | -0.104 ± 0.054

Row | Variant | abundance fitness
25 | I61T | -0.292 ± 0.07
26 | I61D | -0.53 ± 0.097
27 | I61E | -0.245 ± 0.068
28 | I61G | -0.184 ± 0.04
29 | I61K | -0.047 ± 0.057
30 | I61Q | -0.14 ± 0.059
31 | I61R | 0.002 ± 0.04
32 | I61H | -0.218 ± 0.15
33 | I61Y | -0.478 ± 0.085
34 | I61F | -0.39 ± 0.1
35 | I61P | -0.556 ± 0.065
36 | I61N | -0.181 ± 0.069
37 | I61A | 0.002 ± 0.066
38 | I61S | -0.045 ± 0.048
39 | I61L | -0.061 ± 0.044
40 | I61W | -0.624 ± 0.076
41 | I61M | -0.095 ± 0.071
42 | I61C | -0.126 ± 0.082
43 | I54W | -0.619 ± 0.05
44 | I54V | -0.075 ± 0.038
45 | I54F | -0.661 ± 0.12
46 | I54L | -0.017 ± 0.036
47 | I54H | -0.221 ± 0.075
48 | I54P | -0.724 ± 0.073

Row | Variant | abundance fitness
49 | I54K | -0.081 ± 0.049
50 | I54E | 0.09 ± 0.043
51 | I54R | -0.23 ± 0.033
52 | I54Q | -0.052 ± 0.042
53 | I54S | -0.066 ± 0.045
54 | I54D | -0.04 ± 0.072
55 | I54Y | -0.642 ± 0.084
56 | I54T | -0.132 ± 0.049
57 | I54M | -0.051 ± 0.047
58 | I54A | -0.063 ± 0.042
59 | I54C | -0.26 ± 0.052
60 | S55L | -0.843 ± 0.049
61 | S55D | -0.918 ± 0.096
62 | S55I | -0.718 ± 0.12
63 | S55K | -0.889 ± 0.069
64 | S55V | -0.865 ± 0.053
65 | S55T | -0.815 ± 0.062
66 | S55A | -0.092 ± 0.042
67 | S55N | -0.8 ± 0.096
68 | S55G | -0.818 ± 0.048
69 | S55F | -0.915 ± 0.11
70 | S55Y | -1.07 ± 0.16
71 | S55H | -0.895 ± 0.11
72 | S55M | -0.931 ± 0.074

Row | Variant | abundance fitness
73 | S55W | -1 ± 0.079
74 | S55E | -0.662 ± 0.059
75 | S55C | -0.535 ± 0.091
76 | S55Q | -0.769 ± 0.066
77 | A59I | -1.03 ± 0.32
78 | A59K | -0.717 ± 0.08
79 | A59S | -0.608 ± 0.055
80 | A59D | -0.718 ± 0.086
81 | A59P | -1.08 ± 0.12
82 | A59R | -0.843 ± 0.041
83 | A59G | -0.61 ± 0.036
84 | A59C | -0.663 ± 0.074
85 | A59W | -0.937 ± 0.066
86 | A59E | -0.798 ± 0.065
87 | A59T | -0.869 ± 0.091
88 | A59M | -0.753 ± 0.075
89 | A59V | -1.03 ± 0.072
90 | A59Q | -0.785 ± 0.081
91 | A59Y | -1.16 ± 0.34
92 | A59H | -1.04 ± 0.19
93 | A59F | -0.911 ± 0.21
94 | A59N | -0.705 ± 0.12
95 | A59L | -0.806 ± 0.059
96 | A60H | -0.803 ± 0.083

Row | Variant | abundance fitness
97 | A60V | -0.489 ± 0.044
98 | A60I | -0.452 ± 0.083
99 | A60R | -0.882 ± 0.05
100 | A60L | -0.414 ± 0.039
101 | A60M | -0.363 ± 0.058
102 | A60T | -0.466 ± 0.049
103 | A60Q | -0.741 ± 0.057
104 | A60P | -0.701 ± 0.064
105 | A60G | -0.685 ± 0.051
106 | A60Y | -0.431 ± 0.072
107 | A60F | -0.068 ± 0.081
108 | A60K | -0.714 ± 0.075
109 | A60E | -0.575 ± 0.056
110 | A60W | -1.02 ± 0.11
111 | A60N | -0.739 ± 0.095
112 | A60C | -0.067 ± 0.069
113 | A60D | -0.649 ± 0.089
114 | K56Q | -0.291 ± 0.1
115 | K56V | -0.32 ± 0.064
116 | K56W | -0.825 ± 0.1
117 | K56A | -0.457 ± 0.069
118 | K56F | -0.476 ± 0.11
119 | K56M | -0.35 ± 0.1
120 | K56R | -0.042 ± 0.044

Row | Variant | abundance fitness
121 | K56N | -0.405 ± 0.34
122 | K56D | -0.661 ± 0.18
123 | K56I | -0.127 ± 0.19
124 | K56L | -0.36 ± 0.061
125 | K56E | -0.504 ± 0.094
126 | K56C | -0.524 ± 0.11
127 | K56H | -0.743 ± 0.33
128 | K56G | -0.599 ± 0.056
129 | K56P | -0.997 ± 0.2
130 | K56Y | -0.254 ± 0.092
131 | K53R | -0.042 ± 0.04
132 | K53W | -0.214 ± 0.053
133 | K53Q | -0.207 ± 0.065
134 | K53T | -0.311 ± 0.057
135 | K53V | -0.22 ± 0.042
136 | K53P | -0.284 ± 0.07
137 | K53N | -0.243 ± 0.065
138 | N58Y | -0.4 ± 0.075
139 | N58A | -0.171 ± 0.056
140 | N58G | -0.655 ± 0.054
141 | N58K | -0.149 ± 0.048
142 | N58W | -0.868 ± 0.087
143 | N58V | -0.565 ± 0.055
144 | N58L | -0.195 ± 0.041

Row | Variant | abundance fitness
145 | N58E | -0.238 ± 0.057
146 | N58C | -0.451 ± 0.072
147 | N58Q | -0.126 ± 0.051
148 | N58S | -0.341 ± 0.043
149 | N58T | -0.604 ± 0.064
150 | N58F | -0.434 ± 0.071
151 | N58M | -0.055 ± 0.053
152 | N58P | -0.763 ± 0.055
153 | N58H | -0.284 ± 0.075
154 | N58I | -0.614 ± 0.085
155 | N58R | -0.105 ± 0.04
156 | V63Q | -0.597 ± 0.065
157 | V63F | -0.829 ± 0.17
158 | V63A | -0.246 ± 0.055
159 | V63G | -0.482 ± 0.039
160 | V63H | -0.858 ± 0.11
161 | V63R | -0.73 ± 0.042
162 | V63M | -0.239 ± 0.073
163 | V63N | -0.521 ± 0.08
164 | V63L | -0.143 ± 0.045
165 | V63P | -0.577 ± 0.057
166 | V63D | -0.497 ± 0.097
167 | V63C | -0.233 ± 0.062
